These results are taken from US20150284467A1 (MAX DELBR CK CENTRUM F R MOLEKULARE MEDIZIN, published 2015).

As usually defined, the Kd is the equilibrium constant for the complex coming apart.

Test [1] deals with T1, extracellular domain of human CD269 (BCMA, TNFRSF17), purified (human, UniProt Q02223 4-54).
T1 construct: also called BCMA extracellular domain
T1 sequence: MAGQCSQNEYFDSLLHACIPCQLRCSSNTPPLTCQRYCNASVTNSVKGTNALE
The test can be described thus: SPR, value printed beside the trace for 30.0 nM BCMA; neither quantity nor unit is printed on the sheet: the five printed values average 5.40E-11, which is the mean Kd of 54 pM in paragraph 181.

The target of test [2] is T1, extracellular domain of human CD269 …. The test can be described thus: SPR, value printed beside the trace for 10.0 nM BCMA; neither quantity nor unit is printed on the sheet: the five printed values average 5.40E-11, which is the mean Kd of 54 pM in paragraph 181.
Test [3] has the same target. The test can be described thus: SPR, value printed beside the trace for 1.1 nM BCMA; neither quantity nor unit is printed on the sheet: the five printed values average 5.40E-11, which is the mean Kd of 54 pM in paragraph 181. A general note: In SPR one partner is held on a chip, and binding of the other changes the refractive index at the surface.
Test [4] has the same target. As to the kind of experiment: SPR, value printed beside the trace for 3.3 nM BCMA; neither quantity nor unit is printed on the sheet: the five printed values average 5.40E-11, which is the mean Kd of 54 pM in paragraph 181.
Test [5] has the same target. As to the kind of experiment: SPR, value printed beside the trace for 90.0 nM BCMA; neither quantity nor unit is printed on the sheet: the five printed values average 5.40E-11, which is the mean Kd of 54 pM in paragraph 181.
The target is the same in test [6]. As to the kind of experiment: surface plasmon resonance with several concentrations of BCMA (FIG. 1c).

B1: J22.9-xi chimeric antibody (mouse VH/VL of hybridoma J22.9 on human IgG1 and kappa constant domains) (antibody, V domains shown)
VH: QVQLQQSGGGLVQPGGSLKLSCAASGIDFSRYWMSWVRRAPGKGLEWIGEINPDSSTINYAPSLKDKFIISRDNAKNTLYLQMSKVRSEDTALYYCASLYYDYGDAMDYWGQGTSVTVSS
VL: DIVMTQSQRFMTTSVGDRVSVTCKASQSVDSNVAWYQQKPRQSPKALIFSASLRFSGVPARFTGSGSGTDFTLTISNLQSEDLAEYFCQQYNNYPLTFGAGTKLELKR
modifications: N-linked oligosaccharide chain at Asn297
notes: Full length IgG made in 293-6E cells; the constant domains are marked 'Used in J22.9-xi'
For the molecule B1, the Kd turned out to be 0.0695 nM in test [1]; 0.0555 nM in test [2]; 0.021 nM in test [3]; 0.0362 nM in test [4]; 0.088 nM in test [5]; 0.054 nM in test [6].
